Patent US20200181278A1 (MITSUBISHI TANABE PHARMA, published 2020)

T1: mouse CD138 His (mouse, UniProt P18828 23-255, limits assumed)
T1 construct: also called mCD138; not shown: His tag
T1 sequence: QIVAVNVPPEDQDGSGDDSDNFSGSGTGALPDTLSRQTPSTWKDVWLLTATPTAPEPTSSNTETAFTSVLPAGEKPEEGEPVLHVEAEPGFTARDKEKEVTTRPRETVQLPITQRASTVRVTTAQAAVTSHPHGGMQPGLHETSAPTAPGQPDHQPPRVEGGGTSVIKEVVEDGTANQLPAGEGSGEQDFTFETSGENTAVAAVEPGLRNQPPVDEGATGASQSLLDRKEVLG


Target: T1, mouse CD138 His
Assay: SPR, mouse CD138 His immobilised, antibody as analyte
Procedure: Murine IgGs were purified from the hybridoma supernatants and the IgGs were subject to SPR (surface plasmon resonance) for kinetic binding measurements. […] […] KDs were measured using bivalent analyte fit.

binding result	Binder
no binding	F12P7G11 (antibody, V domains shown, Murine IgG purified from hybridoma supernatant) VH: QVQLQQSGAELARPGASVKLSCKASGYTFSSHWMQWVKQRPGQGLEWIGAIYPGDGDTRFTQKFKGKATLTADKSSNTAYMQLSSLASEDSAVYYCARGIYYDRSRAMDYWGQGTSVTVSS VL: QIVLSQSPAILSASPGEKVTMTCRASSSVNYMHWYQQKPGSSPKHWIYATSYLASGVPARFSGSGSGTSYSLTISRVEAEDAATYYCQQWSSDPLTFGAGTKLELKR
no binding	F11AP11E5 (antibody, V domains shown, Murine IgG purified from hybridoma supernatant) VH: QVQLQQSGAELVKPGASVKLSCKASGYTFTNYYMYWVKQRPGQGLEWIGEINPGNGGTNFNEKFKNKATLTVDKSSSTAYMQLSSLTSEDSAVYYCTTRFAYWGQGTLVIVSA VL: DVVMTQTPLSLSVTIGQPASISCKSGQSLLYSNGKTYLTWLQQRPGQAPKLLMYQVSKLDPGIPDRFSGSGSETDFTLKISRVEAEDLGVYYCLQNTYYPHTFGAGTKLELKR
